Measured values taken from US12269859B2, “Synthetic immune receptors and methods of use thereof” (Angeles Therapeutics, Inc., priority 2016, dated 2025).

Test system: target antigen-expressing cell line
Assay: Jurkat NFAT-GFP assay, coculture with target cell lines expressing the respective target antigen (summary Table 10A)
Format: cell-based, human
Set-up: key: The signs +/−, +, 2+ etc. after the name of the cell lines indicate the relative degree of positivity on the Jurkat-NFAT-GFP assay as measured by the % GFP positive cells; +: relative degree of positivity on the Jurkat-NFAT-GFP assay as measured by the % GFP positive cells; 2+: relative degree of positivity on the Jurkat-NFAT-GFP assay as measured by the % GFP positive cells
Details: relative % GFP positive cells; for NFAT-GFP ASSAY Positive Cell lines: HL60: SIR-expressing Jurkat-NFAT-GFP cells cocultured with HL60
How it was run: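 Read-out: % GFP+ cells by FACS. SIR-transduced, puromycin-selected Jurkat NFAT-GFP (IL-2 promoter reporter) cocultured ~4–18 h with target line, E:T ~1:2; parental cells as control; graded +/−, +, 2+ relative to parental.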

Molecule | NFAT-GFP ASSAY Positive Cell lines: HL60 | further results
041216-G06 (protein, Polynucleotide encoding a Synthetic Immune Receptor (SIR)) MALPVTALLLPLALLLHAARPDEIVLTQSPGSLAVSPGERVTMSCKSSQSVFFSSSQKNYLAWYQQIPGQSPRLLIYWASTRESGVPDRFTGSGSGTDFTLTISSVQPEDLAIYYCHQYLSSRTFGQGTKLEIKRLEGKPIPNPLLGLDSTGSGEDLKNVFPPEVAVFEPSKAEIAHTQKATLVCLATGFYPDHVELSWWVNGKEVHSGVCTDPQPLKEQPALNDSRYCLSSRLRVSATFWQNPRNHFRCQVQFYGLSENDEWTQDRAKPVTQIVSAEAWGRADCGITSASYHQGVLSATILYEILLGKATLYAVLVSALVLMAMVKRKDSRGRAKRSGSGATNFSLLKQAGDVEENPGPTSMDWIWRILFLVGAATGAHSFEQVQLQQPGAEVVKPGASVKMSCKASGYTFTSYYIHWIKQTPGQGLEWVGVIYPGNDDISYNQKFQGKATLTADKSSTTAYMQLSSLTSEDSAVYYCAREVRLRYFDVWGQGTTVTVSSTREQKLISEEDGSGTPFPSLAPPIMLLVDGKQQMVVVCLVLDVAPPGLDSPIWFSAGNGSALDAFTYGPSPATDGTWTNLAHLSLPSEELASWEPLVCHTGPGAEGHSRSTQPMHLSGEASTARTCPQEPLRGTPGGALWLGVLRLLLFKLLLFDLLLTCSCLCDPAGPLPSPATTTRLRALGSHRLHPATETGGREATSSPRPQPRDRRWGDTPPGRKPGSPVRAKRSGSGVKQTLNFDLLKLAGDVESNPGPSRGHMTEYKPTVRLATRDDVPRAVRTLAAAFADYPATRHTVDPDRHIERVTELQELFLTRVGLDIGKVWVADDGAAVAVWTTPESVEAGAVFAEIGPRMAELSGSRLAAQQQMEGLLAPHRPKEPAWFLATVGVSPDHQGKGLGSAVVLPGVEAAERAGVPAFLETSAPRNLPFYERLGFTVTADVEVPEGPRTWCMTRKPGA | + | NFAT-GFP ASSAY Positive Cell lines: KG1 (SIR-expressing Jurkat-NFAT-GFP cells cocultured with KG1): KG1 (+/−); NFAT-GFP ASSAY Positive Cell lines: RAJI (SIR-expressing Jurkat-NFAT-GFP cells cocultured with RAJI): RAJI (+/−), HL60; NFAT-GFP ASSAY Positive Cell lines: THP1 (SIR-expressing Jurkat-NFAT-GFP cells cocultured with THP1): +/−
032216-W04 (protein, Polynucleotide encoding a Synthetic Immune Receptor (SIR)) MALPVTALLLPLALLLHAARPDEIVLTQSPGSLAVSPGERVTMSCKSSQSVFFSSSQKNYLAWYQQIPGQSPRLLIYWASTRESGVPDRFTGSGSGTDFTLTISSVQPEDLAIYYCHQYLSSRTFGQGTKLEIKRLEGKPIPNPLLGLDSTGSGEDLKNVFPPEVAVFEPSKAEIAHTQKATLVCLATGFYPDHVELSWWVNGKEVHSGVCTDPQPLKEQPALNDSRYCLSSRLRVSATFWQNPRNHFRCQVQFYGLSENDEWTQDRAKPVTQIVSAEAWGRADCGITSASYHQGVLSATILYEILLGKATLYAVLVSALVLMAMVKRKDSRGRAKRSGSGATNFSLLKQAGDVEENPGPTSMDWIWRILFLVGAATGAHSFEQVQLQQPGAEVVKPGASVKMSCKASGYTFTSYYIHWIKQTPGQGLEWVGVIYPGNDDISYNQKFQGKATLTADKSSTTAYMQLSSLTSEDSAVYYCAREVRLRYFDVWGQGTTVTVSSTREQKLISEEDGSGIQNPDPAVYQLRDSKSSDKSVCLFTDFDSQTNVSQSKDSDVYITDKCVLDMRSMDFKSNSAVAWSNKSDFACANAFNNSIIPEDTFFPSSDVPCDVKLVEKSFETDTNLNFQNLSVIGFRILLLKVAGFNLLMTLRLWSSRAKRSGSGVKQTLNFDLLKLAGDVESNPGPSRGHMTEYKPTVRLATRDDVPRAVRTLAAAFADYPATRHTVDPDRHIERVTELQELFLTRVGLDIGKVWVADDGAAVAVWTTPESVEAGAVFAEIGPRMAELSGSRLAAQQQMEGLLAPHRPKEPAWFLATVGVSPDHQGKGLGSAVVLPGVEAAERAGVPAFLETSAPRNLPFYERLGFTVTADVEVPEGPRTWCMTRKPGA | HL60 (+), MOLM13 | 
090116-F02 (protein, Synthetic Immune Receptor (SIR)) MALPVTALLLPLALLLHAARPLEGKPIPNPLLGLDSTGSGEDLKNVFPPEVAVFEPSKAEIAHTQKATLVCLATGFYPDHVELSWWVNGKEVHSGVCTDPQPLKEQPALNDSRYCLSSRLRVSATFWQNPRNHFRCQVQFYGLSENDEWTQDRAKPVTQIVSAEAWGRADCGITSASYHQGVLSATILYEILLGKATLYAVLVSALVLMAMVKRKDSRGRAKRSGSGATNFSLLKQAGDVEENPGPTSMALPVTALLLPLALLLHAARPDDIVMTQSPDSLTVSLGERTTINCKSSQSVLDSSKNKNSLAWYQQKPGQPPKLLLSWASTRESGIPDRFSGSGSGTDFTLTIDSLQPEDSATYYCQQSAHFPITFGQGTRLEIKGGGGSGGGGSGGGGSQVQLVQSGAEVKKPGASVKVSCKASGYTFTNYGMNWVKQAPGQGLKWMGWINTYTGEPTYADDFKGRVTMTSDTSTSTAYLELHNLRSDDTAVYYCARWSWSDGYYVYFDYWGQGTTVTVSSTREQKLISEEDGSGIQNPDPAVYQLRDSKSSDKSVCLFTDFDSQTNVSQSKDSDVYITDKCVLDMRSMDFKSNSAVAWSNKSDFACANAFNNSIIPEDTFFPSSDVPCDVKLVEKSFETDTNLNFQNLSVIGFRILLLKVAGFNLLMTLRLWSSRAKRSGSGVKQTLNFDLLKLAGDVESNPGPSRGHMTEYKPTVRLATRDDVPRAVRTLAAAFADYPATRHTVDPDRHIERVTELQELFLTRVGLDIGKVWVADDGAAVAVWTTPESVEAGAVFAEIGPRMAELSGSRLAAQQQMEGLLAPHRPKEPAWFLATVGVSPDHQGKGLGSAVVLPGVEAAERAGVPAFLETSAPRNLPFYERLGFTVTADVEVPEGPRTWCMTRKPGA | HL60 (+/−) | 
012517-I12 (protein) MALPVTALLLPLALLLHAARPLEGKPIPNPLLGLDSTGSGEDLKNVFPPEVAVFEPSKAEIAHTQKATLVCLATGFYPDHVELSWWVNGKEVHSGVCTDPQPLKEQPALNDSRYCLSSRLRVSATFWQNPRNHFRCQVQFYGLSENDEWTQDRAKPVTQIVSAEAWGRADCGITSASYHQGVLSATILYEILLGKATLYAVLVSALVLMAMVKRKDSRGRAKRSGSGATNFSLLKQAGDVEENPGPTSMALPVTALLLPLALLLHAARPDIQLTQSPSSLSASVGDRVTITCRASQGISSVLAWYQQKPGKAPKLLIYDASSLESGVPSRFSGSGSGTDFTLTISSLQPEDFATYYCQQFNSSITFGQGTKLEIKRTVAAGGGGSGGGGSGGGGSQVQLVQSGAEVKKPGSSVKVSCKASGGTFSDYAISWVRQAPGQGLEWMGRIIPILGVANYAQKFQGRVTITADKSTRTAYMELSSLRSEDTAVYYCARNWADAFDIWGQGTMVTVSSASTREQKLISEEDGSGIQNPDPAVYQLRDSKSSDKSVCLFTDFDSQTNVSQSKDSDVYITDKCVLDMRSMDFKSNSAVAWSNKSDFACANAFNNSIIPEDTFFPSSDVPCDVKLVEKSFETDTNLNFQNLSVIGFRILLLKVAGFNLLMTLRLWSSRAKRSGSGVKQTLNFDLLKLAGDVESNPGPSRGHMTEYKPTVRLATRDDVPRAVRTLAAAFADYPATRHTVDPDRHIERVTELQELFLTRVGLDIGKVWVADDGAAVAVWTTPESVEAGAVFAEIGPRMAELSGSRLAAQQQMEGLLAPHRPKEPAWFLATVGVSPDHQGKGLGSAVVLPGVEAAERAGVPAFLETSAPRNLPFYERLGFTVTADVEVPEGPRTWCMTRKPGA | HL60 (+/−) | 
022217-X03 (protein) MALPVTALLLPLALLLHAARPLEGKPIPNPLLGLDSTGSGEDLKNVFPPEVAVFEPSKAEIAHTQKATLVCLATGFYPDHVELSWWVNGKEVHSGVCTDPQPLKEQPALNDSRYCLSSRLRVSATFWQNPRNHFRCQVQFYGLSENDEWTQDRAKPVTQIVSAEAWGRADCGITSASYHQGVLSATILYEILLGKATLYAVLVSALVLMAMVKRKDSRGRAKRSGSGATNFSLLKQAGDVEENPGPTSMALPVTALLLPLALLLHAARPDIQMTQSPSSLSASVGDRVTINCKASQDINSYLSWFQQKPGKAPKTLIYRANRLVDGVPSRFSGSGSGQDYTLTISSLQPEDFATYYCLQYDEFPLTFGGGTKVEIKGGGGSGGGGSGGGGSQVQLVQSGAEVKKPGASVKVSCKASGYTFTNYDINWVRQAPGQGLEWIGWIYPGDGSTKYNEKFKAKATLTADTSTSTAYMELRSLRSDDTAVYYCASGYEDAMDYWGQGTTVTVSSTREQKLISEEDGSGIQNPDPAVYQLRDSKSSDKSVCLFTDFDSQTNVSQSKDSDVYITDKCVLDMRSMDFKSNSAVAWSNKSDFACANAFNNSIIPEDTFFPSSDVPCDVKLVEKSFETDTNLNFQNLSVIGFRILLLKVAGFNLLMTLRLWSSRAKRSGSGVKQTLNFDLLKLAGDVESNPGPSRGHMTEYKPTVRLATRDDVPRAVRTLAAAFADYPATRHTVDPDRHIERVTELQELFLTRVGLDIGKVWVADDGAAVAVWTTPESVEAGAVFAEIGPRMAELSGSRLAAQQQMEGLLAPHRPKEPAWFLATVGVSPDHQGKGLGSAVVLPGVEAAERAGVPAFLETSAPRNLPFYERLGFTVTADVEVPEGPRTWCMTRKPGA |  | NFAT-GFP ASSAY Positive Cell lines: U266 (SIR-expressing Jurkat-NFAT-GFP cells cocultured with U266): U266 (+/−)
060717-T02 (protein) MALPVTALLLPLALLLHAARPDIQMTQSPSSLSASVGDRVTINCKASQDINSYLSWFQQKPGKAPKTLIYRANRLVDGVPSRFSGSGSGQDYTLTISSLQPEDFATYYCLQYDEFPLTFGGGTKVEIKLEIQNPDPAVYQLRDSKSSDKSVCLFTDFDSQTNVSQSKDSDVYITDKCVLDMRSMDFKSNSAVAWSNKSDFACANAFNNSIIPEDTFFPSSDVPCDVKLVEKSFETDTNLNFQNLSVIGFRILLLKVAGFNLLMTLRLWSSRAKRSGSGVKQTLNFDLLKLAGDVESNPGPTSMDWIWRILFLVGAATGAHSFEQVQLVQSGAEVKKPGASVKVSCKASGYTFTNYDINWVRQAPGQGLEWIGWIYPGDGSTKYNEKFKAKATLTADTSTSTAYMELRSLRSDDTAVYYCASGYEDAMDYWGQGTTVTVSSTREDLKNVFPPEVAVFEPSKAEIAHTQKATLVCLATGFYPDHVELSWWVNGKEVHSGVCTDPQPLKEQPALNDSRYCLSSRLRVSATFWQNPRNHFRCQVQFYGLSENDEWTQDRAKPVTQIVSAEAWGRADCGITSASYHQGVLSATILYEILLGKATLYAVLVSALVLMAMVKRKDSRGRAKRSGSGATNFSLLKQAGDVEENPGPSRGHMTEYKPTVRLATRDDVPRAVRTLAAAFADYPATRHTVDPDRHIERVTELQELFLTRVGLDIGKVWVADDGAAVAVWTTPESVEAGAVFAEIGPRMAELSGSRLAAQQQMEGLLAPHRPKEPAWFLATVGVSPDHQGKGLGSAVVLPGVEAAERAGVPAFLETSAPRNLPFYERLGFTVTADVEVPEGPRTWCMTRKPGA | HL60 (2+) | 
